Measured values reported in patent US20230390362A1, “USE OF TRIGONAL AGONIST HAVING ACTIVITIES TO ALL OF GLUCAGON, GLP-1, AND GIP RECEPTORS IN TREATMENT OF SEQUELAE FOLLOWING RESPIRATORY INFECTIOUS DISEASES” (HANMI PHARM. CO., LTD., priority 2020, published 2023).
Positions of bridges follow the written chain, without caps; N, C: chain ends. Non-standard residues stand in square brackets, D forms with d. No end group written: not given here. *: point of attachment. Acetyl(2-(4-imidazolyl)) = O=C(Cc1c[nH]cn1)*; Aib = CC(C)(N)C(=O)O

Tests used:
Assay in all cases: cell-based or functional assay
[1] = target: human GLP-1 receptor (human, UniProt P43220 24-463)
[2] = target: T1, human GIP receptor (human, UniProt P48546 22-466)
T1 sequence (looked up): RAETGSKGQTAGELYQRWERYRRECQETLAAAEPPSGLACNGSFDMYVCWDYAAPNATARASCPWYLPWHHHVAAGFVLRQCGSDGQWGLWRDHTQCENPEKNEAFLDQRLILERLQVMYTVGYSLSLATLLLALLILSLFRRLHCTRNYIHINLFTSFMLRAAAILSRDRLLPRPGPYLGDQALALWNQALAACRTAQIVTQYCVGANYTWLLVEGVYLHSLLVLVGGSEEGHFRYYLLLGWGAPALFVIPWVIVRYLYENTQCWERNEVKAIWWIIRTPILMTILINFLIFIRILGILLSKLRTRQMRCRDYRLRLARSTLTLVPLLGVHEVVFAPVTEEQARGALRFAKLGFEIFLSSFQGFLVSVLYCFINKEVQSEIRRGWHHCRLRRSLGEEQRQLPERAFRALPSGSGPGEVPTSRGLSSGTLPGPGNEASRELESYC

[3] = target: human GCG receptor (human, UniProt P47871 26-477)
Chain of human GCG receptor (P47871 26-477): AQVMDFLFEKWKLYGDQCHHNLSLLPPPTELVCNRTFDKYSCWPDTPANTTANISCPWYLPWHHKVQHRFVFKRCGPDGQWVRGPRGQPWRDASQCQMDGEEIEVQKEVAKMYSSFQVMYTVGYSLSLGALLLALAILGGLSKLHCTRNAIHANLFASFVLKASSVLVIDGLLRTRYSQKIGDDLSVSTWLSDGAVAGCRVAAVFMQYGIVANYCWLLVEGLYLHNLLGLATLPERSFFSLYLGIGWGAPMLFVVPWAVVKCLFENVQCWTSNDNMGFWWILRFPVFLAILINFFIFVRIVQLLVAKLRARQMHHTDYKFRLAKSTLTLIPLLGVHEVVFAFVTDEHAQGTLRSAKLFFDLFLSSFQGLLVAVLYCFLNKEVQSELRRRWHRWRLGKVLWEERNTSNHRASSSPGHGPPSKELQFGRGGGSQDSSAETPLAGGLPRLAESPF

Row | Binder | In vitro activity relative to native peptide (%), vs. GLP-1 (cAMP EC50) [1] | In vitro activity relative to native peptide (%), vs. GIP (cAMP EC50) [2] | In vitro activity relative to native peptide (%), vs. Glucagon (cAMP EC50) [3]
1 | Y[Aib]QGTFTSDYSKYLDEKAAKDFVQWLLDHHPSSGQPPPSC (bridge 16-20) [trigonal agonist of SEQ ID NO: 77] | 38.7% | 35.5% | 12.2%
2 | Y[Aib]QGTFTSDYSKYLDEKAAKEFVQWLLDHHPSSGQPPPSC (bridge 16-20) [trigonal agonist of SEQ ID NO: 75] | 35.1% | 18% | 8.5%
3 | {Acetyl(2-(4-imidazolyl))}-[Aib]QGTFTSDCSKYLDERAAQDFVQWLLDGGPSSGAPPPS [trigonal agonist of SEQ ID NO: 63] | 15.3% | < 0.1% | < 0.1%
4 | H[Aib]QGTFTSDVSKYLDGQAAKEFVAWLLKGC [trigonal agonist of SEQ ID NO: 7] | 13.7% | < 0.1% | < 0.1%
5 | Y[Aib]QGTFTSDYSKYLDECAAKEFVQWLLDHHPSSGQPPPS (bridge 16-20) [trigonal agonist of SEQ ID NO: 64] | 64.6% | 92.9% | 60.1%
6 | H[Aib]QGTFTSDVSKYLDGQAAQEFVAWLLAGC [trigonal agonist of SEQ ID NO: 9] | 32.1% | < 0.1% | 0.13%
7 | {Acetyl(2-(4-imidazolyl))}-[Aib]EGTFTSDYSIAMDEIHQKDFVNWLLAQC (bridge 15-19) [trigonal agonist of SEQ ID NO: 83] | 47.3% | 0.4% | 1.3%
8 | {Acetyl(2-(4-imidazolyl))}-[Aib]QGTFTSDYSKYLDECRAKEFVQWLLDHHPSSGQPPPS (bridge 15-19) [trigonal agonist of SEQ ID NO: 73] | 22.6% | 3% | 5.4%
9 | {Acetyl(2-(4-imidazolyl))}-[Aib]QGTFTSDYSKYLDEKRQKEFVQWLLNTC (bridge 15-19) [trigonal agonist of SEQ ID NO: 81] | 7.8% | < 0.1% | 0.3%
10 | {Acetyl(2-(4-imidazolyl))}-[Aib]QGTFTSDKSKYLDERAAQDFVQWLLDGGPSSGAPPPS [trigonal agonist of SEQ ID NO: 62] | 5.2% | < 0.1% | < 0.1%
11 | H[Aib]EGTFTSDYSIAMDEIHQKDFVNWLLAQKC (bridge 16-20) [trigonal agonist of SEQ ID NO: 79] | 41.5% | 1.4% | 4.9%
12 | Y[Aib]QGTFTSDYSKCLDERAAKEFVQWLLDHHPSSGQPPPS (bridge 16-20) [trigonal agonist of SEQ ID NO: 69] | 24.3% | 62.8% | 9.6%
13 | {Acetyl(2-(4-imidazolyl))}-[Aib]EGTFTSDYSIAMDEIHQKDFVDWLLAEC (bridge 15-19) [trigonal agonist of SEQ ID NO: 84] | 4.2% | < 0.1% | < 0.1%
14 | Y[Aib]QGTFTSDYSKYLDEKRAKDFVQWLLDHHPSSGQPPPSC (bridge 16-20) [trigonal agonist of SEQ ID NO: 76] | 10.3% | 11.7% | 47.6%
